Changes are numbered by the printed parent chain.
T1: Cdx2 (Mus musculus, UniProt P43241 P43241:1-311)
T1 sequence: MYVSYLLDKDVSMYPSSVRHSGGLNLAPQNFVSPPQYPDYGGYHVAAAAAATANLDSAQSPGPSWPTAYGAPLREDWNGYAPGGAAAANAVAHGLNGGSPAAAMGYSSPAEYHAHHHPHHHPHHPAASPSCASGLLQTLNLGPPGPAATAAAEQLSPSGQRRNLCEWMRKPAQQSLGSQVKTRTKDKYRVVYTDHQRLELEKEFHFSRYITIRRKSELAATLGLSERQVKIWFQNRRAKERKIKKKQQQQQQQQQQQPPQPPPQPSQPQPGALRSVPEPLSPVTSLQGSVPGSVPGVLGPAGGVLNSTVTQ

B1: FP1 (dsDNA)
DNA 1: CAGCTAATCTCTCTGTTTATAGCTCTGACCTTTC
DNA 2: GAAAGGTCAGAGCTATAAACAGAGAGATTAGCTG
B2: FP1-CCC (dsDNA)
DNA 1: B1 DNA 1 with T16C, T17C, T18C
DNA 2: B1 DNA 2 with A17G, A18G, A19G

What was measured:
Cdx2 [1] = target: T1, Cdx2; assay: EMSA; supershifted by anti-Cdx2, 10 mM Tris pH 7.5, 50 mM NaCl, 2.5 mM MgCl2, room temp; conditions: tags: pRc/CMV-Cdx2, TNT Quick-coupled (Promega); label: 32P 5'-end
Procedure: (§1) Electromobility Shift Assay (EMSA). Protein-DNA binding reactions performed in the same buffer as the DNase I protection assay (4% glycerol, 10 mM Tris-HCl (pH 7.5) 50 mM NaCl, 2.5 mM MgCl₂ and 5 mM DTT) included […] of Poly(dI.dC)-Poly(dI.dC) (Amersham Pharmacia Biotech, Piscataway, N.J.) and 30 kcpm of probe. Reactions were initiated by the addition of nuclear extract and incubated for 30 min at room temp to produce protein complexes which were separated on a 6% non-denaturing, polyacrylamide (37.5:1) gel in 0.5× TBE running buffer. Gels were dried prior to visualization of radiolabelled complexes by autoradiography. In competition assays, unlabelled competitor was added to the reaction mixtures at concentrations ranging from 25-fold to 250-fold molar excess of the labeled probe prior to the addition of the nuclear extract. Supershift assays were performed by adding […] of murine Cdx2 antibody after an initial incubation period of 30 min; incubation was then continued for an additional 30 min. Transcribed and translated murine Cdx2 protein was generated in vitro using linearized pRc/CMV-Cdx2 expression vector as a template for the TNT-Quickcoupled Kit (Promega).
(§2) Cdx2 binds specifically to the FP1 probe. To determine whether FP1 is a binding site for Cdx2, labeled FP1 was incubated with in vitro transcribed and translated murine Cdx2. […]

Cdx2 [2] = target: T1, Cdx2; assay: EMSA; no specific complex formed; conditions: tags: pRc/CMV-Cdx2, TNT Quick-coupled (Promega); label: 32P 5'-end
Procedure: as §1, §2

Row | Binder | binding result (Cdx2 [1]) | binding result (Cdx2 [2])
1 | B1 | binds | –
2 | B2 | – | no binding

Source: patent US20010039016, “Use of expression profiling for identifying molecular markers useful for diagnosis of metastatic cancer” (published 2001)
